Data reported in patent US20240383990A1 (DIAGONAL THERAPEUTICS, published 2024).
Like-named read-outs stand apart in the source and are kept apart here.

T1: IL-18 receptor (IL-18Rα and IL-18Rβ) on HEK-Blue IL-18 cells (UniProt Q13478 19-541; O95256 20-599, limits assumed)
T1 sequence (looked up) 1: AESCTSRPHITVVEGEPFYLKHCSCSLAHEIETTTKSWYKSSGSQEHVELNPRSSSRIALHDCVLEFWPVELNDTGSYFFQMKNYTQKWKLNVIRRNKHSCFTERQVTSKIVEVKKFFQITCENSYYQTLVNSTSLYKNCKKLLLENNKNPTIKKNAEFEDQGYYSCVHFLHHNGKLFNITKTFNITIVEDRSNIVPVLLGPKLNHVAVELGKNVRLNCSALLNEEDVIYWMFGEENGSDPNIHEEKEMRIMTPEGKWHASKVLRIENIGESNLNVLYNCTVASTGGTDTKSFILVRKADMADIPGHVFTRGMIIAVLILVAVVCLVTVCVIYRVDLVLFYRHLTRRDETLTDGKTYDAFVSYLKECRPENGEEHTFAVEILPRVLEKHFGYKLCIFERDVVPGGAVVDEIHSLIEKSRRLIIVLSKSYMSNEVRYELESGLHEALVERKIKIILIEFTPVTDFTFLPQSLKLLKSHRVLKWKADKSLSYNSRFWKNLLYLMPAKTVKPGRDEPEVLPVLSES
T1 sequence (looked up) 2: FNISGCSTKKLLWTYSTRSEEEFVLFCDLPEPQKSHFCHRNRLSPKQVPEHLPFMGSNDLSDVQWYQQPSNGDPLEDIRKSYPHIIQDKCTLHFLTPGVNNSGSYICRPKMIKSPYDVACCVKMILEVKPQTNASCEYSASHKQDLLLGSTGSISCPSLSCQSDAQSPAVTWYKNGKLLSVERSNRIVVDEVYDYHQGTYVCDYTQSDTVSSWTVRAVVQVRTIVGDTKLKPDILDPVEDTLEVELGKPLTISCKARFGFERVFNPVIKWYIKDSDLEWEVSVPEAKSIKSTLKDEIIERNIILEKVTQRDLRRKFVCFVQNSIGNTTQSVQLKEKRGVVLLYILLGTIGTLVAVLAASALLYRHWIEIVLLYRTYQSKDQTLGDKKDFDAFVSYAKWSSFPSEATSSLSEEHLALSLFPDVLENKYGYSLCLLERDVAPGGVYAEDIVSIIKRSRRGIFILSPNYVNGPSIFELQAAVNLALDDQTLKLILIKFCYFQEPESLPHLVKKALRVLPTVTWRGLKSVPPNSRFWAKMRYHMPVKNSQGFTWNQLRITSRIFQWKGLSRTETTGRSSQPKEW


Columns and labels:
Assay in all cases: cell-based or functional assay
[1] = biological target: T2, ALK1 / BMPRII receptor pair (BMPR Type I receptor ALK1 and BMPR Type II receptor BMPRII) on cells (UniProt P37023 22-503; Q13873 27-1038, limits assumed)
T2 sequence (P37023 22-503 limits assumed, chain 1 of 2): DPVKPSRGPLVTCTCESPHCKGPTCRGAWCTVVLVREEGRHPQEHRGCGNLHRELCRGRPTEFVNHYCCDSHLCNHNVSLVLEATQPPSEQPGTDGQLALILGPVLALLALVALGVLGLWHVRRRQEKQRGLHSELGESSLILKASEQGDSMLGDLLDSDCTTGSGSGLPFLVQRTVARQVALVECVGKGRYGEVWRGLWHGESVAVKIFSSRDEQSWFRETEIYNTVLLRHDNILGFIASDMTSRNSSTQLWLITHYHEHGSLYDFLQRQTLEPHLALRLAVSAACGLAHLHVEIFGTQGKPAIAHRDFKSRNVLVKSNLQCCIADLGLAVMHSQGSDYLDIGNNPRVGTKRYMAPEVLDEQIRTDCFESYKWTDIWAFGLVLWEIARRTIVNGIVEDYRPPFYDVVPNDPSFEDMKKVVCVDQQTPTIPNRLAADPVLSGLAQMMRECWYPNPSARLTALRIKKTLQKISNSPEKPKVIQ
T2 sequence (Q13873 27-1038 limits assumed, chain 2 of 2): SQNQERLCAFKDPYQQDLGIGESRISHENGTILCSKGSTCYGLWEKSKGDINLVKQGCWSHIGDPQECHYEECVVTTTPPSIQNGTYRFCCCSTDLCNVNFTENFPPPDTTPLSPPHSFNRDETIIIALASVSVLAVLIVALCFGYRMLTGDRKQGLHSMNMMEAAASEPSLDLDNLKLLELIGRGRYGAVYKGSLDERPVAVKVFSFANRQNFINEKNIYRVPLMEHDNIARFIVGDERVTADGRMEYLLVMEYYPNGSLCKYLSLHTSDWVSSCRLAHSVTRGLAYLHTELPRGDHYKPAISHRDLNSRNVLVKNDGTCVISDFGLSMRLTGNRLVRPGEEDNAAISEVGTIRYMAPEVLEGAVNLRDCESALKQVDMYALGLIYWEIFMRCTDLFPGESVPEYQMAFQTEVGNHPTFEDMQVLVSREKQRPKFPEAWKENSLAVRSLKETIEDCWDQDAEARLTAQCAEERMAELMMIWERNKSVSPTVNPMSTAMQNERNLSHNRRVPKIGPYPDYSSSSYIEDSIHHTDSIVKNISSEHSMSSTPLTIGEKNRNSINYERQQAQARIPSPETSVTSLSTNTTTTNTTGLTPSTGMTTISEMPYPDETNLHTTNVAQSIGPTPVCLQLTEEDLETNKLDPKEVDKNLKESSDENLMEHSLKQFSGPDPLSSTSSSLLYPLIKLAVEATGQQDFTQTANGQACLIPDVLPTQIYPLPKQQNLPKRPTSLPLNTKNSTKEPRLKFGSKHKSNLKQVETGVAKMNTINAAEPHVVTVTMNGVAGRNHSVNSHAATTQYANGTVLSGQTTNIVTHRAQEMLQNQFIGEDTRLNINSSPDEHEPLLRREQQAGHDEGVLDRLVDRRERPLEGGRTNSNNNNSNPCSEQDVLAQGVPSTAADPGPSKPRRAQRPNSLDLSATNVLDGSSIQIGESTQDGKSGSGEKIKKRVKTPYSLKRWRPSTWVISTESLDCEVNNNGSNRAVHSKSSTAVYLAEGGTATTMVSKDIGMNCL

[2] = biological target: T2, ALK1 / BMPRII receptor pair (BMPR Type …); remark: listed apart in the source
[3] = biological target: T2, ALK1 / BMPRII receptor pair (BMPR Type …); remark: listed apart in the source
[4] = biological target: T1, IL-18 receptor (IL-18Rα and IL-18Rβ) on …

Binder	Agonist activity, % Emax BMP9 [1]	Agonist activity, EC50 [1]	Agonist activity, EMAX (RLU) [1]	Agonist activity, % Emax BMP9 [3]	Agonist activity, EC50 [3]	Agonist activity, EMAX (RLU) [3]	HEK-Blue assay, % human IL-18 [4]	other results
DGL288 (bispecific antibody) EVQLLESGGGLVQPGGSLRLSCAASGFTFSDYYMTWIRQAPGKGLEWVSSISGGSTYYADSRKGRFTISRDNSENTLYLQMNSLRAEDTAVYYCARDFGVAGWFGQYGMDVWGQGTLVTVSSGGGGSGGGGSGGGGSQSVLTQPPSASGTPGQRVTISCTGSSSNIGAGYDVHWYQQLPGTAPKLLIYRSNQRPSGVPDRFSGSKSGTSASLAISGLRSEDEADYYCSSYAGNYNLVFGGGTKLTVLDKGPSVFPLAPEPKSSEVQLLESGGGLVQPGGSLRLSCAASGFTFSSYAMSWVRQAPGKGLEWVANINQDGSEKNYVDSMRGRFTISRDNSKNTLYLQMNSLRAEDTAVYYCAREFDYWGQGTLVTVTSSGGGGSGGGGSGGGGSQSVLAQPPSASGTPGQRVTISCSGSSSNIGSNYVYWYQQLPGTAPKLLIYGNNKRPSGVPDRFSGSKSGTSASLAISGLRSEDEADYYCAAWDDSLNGRVFGGGTKLTVLDKTHTCPPCPAPEAAGAPSVFLFPPKPKDTLMISRTPEVTCVVVDVSHEDPEVKFNWYVDGVEVHNAKTKPREEQYNSTYRVVSVLTVLHQDWLNGKEYKCKVSNKALPAPIEKTISKAKGQPREPQVYTLPPSRDELTKNQVSLTCLVKGFYPSDIAVEWESNGQPENNYKTTPPVLDSDGSFFLYSKLTVDKSRWQQGNVFSCSVMHEALHNHYTQKSLSLSPG	76 % Emax BMP9	0.07 nM	2e+06 RLU	76 % Emax BMP9	0.07 nM	2e+06 RLU	–	pSMAD1 ELISA in HUVEC, RLU 15 minutes, at 0 nM (baseline) [2]: 4.5 RLU; pSMAD1 ELISA in HUVEC, RLU 15 minutes, at 0.4 nM [2]: 4.9 RLU; pSMAD1 ELISA in HUVEC, RLU 15 minutes, at 2 nM [2]: 6.5 RLU; pSMAD1 ELISA in HUVEC, RLU 15 minutes, at 10 nM [2]: 6.7 RLU; pSMAD1 ELISA in HUVEC, RLU 60 minutes, at 0 nM (baseline) [2]: 4.5 RLU; pSMAD1 ELISA in HUVEC, RLU 60 minutes, at 0.4 nM [2]: 35 RLU; pSMAD1 ELISA in HUVEC, RLU 60 minutes, at 2 nM [2]: 26.9 RLU; pSMAD1 ELISA in HUVEC, RLU 60 minutes, at 10 nM [2]: 22.7 RLU
PRO005 (bispecific antibody) EVQLLESGGGLVQPGGSLRLSCAASGFTFSSYAMSWVRQAPGKGLEWVANINQDGSEKNYVDSMRGRFTISRDNSKNTLYLQMNSLRAEDTAVYYCAREFDYWGQGTLVTVTSSGGGGSGGGGSGGGGSQSVLAQPPSASGTPGQRVTISCSGSSSNIGSNYVYWYQQLPGTAPKLLIYGNNKRPSGVPDRFSGSKSGTSASLAISGLRSEDEADYYCAAWDDSLNGRVFGGGTKLTVLDKTHTCPPCPAPEAAGAPSVFLFPPKPKDTLMISRTPEVTCVVVDVSHEDPEVKFNWYVDGVEVHNAKTKPREEQYNSTYRVVSVLTVLHQDWLNGKEYKCKVSNKALPAPIEKTISKAKGQPREPQVYTLPPSRDELTKNQVSLTCLVKGFYPSDIAVEWESNGQPENNYKTTPPVLDSDGSFFLYSKLTVDKSRWQQGNVFSCSVMHEALHNHYTQKSLSLSPGGGGGSGGGGSEVQLLESGGGLVQPGGSLRLSCAASGFTFSDYYMTWIRQAPGKGLEWVSSISGGSTYYADSRKGRFTISRDNSENTLYLQMNSLRAEDTAVYYCARDFGVAGWFGQYGMDVWGQGTLVTVSSGGGGSGGGGSGGGGSQSVLTQPPSASGTPGQRVTISCTGSSSNIGAGYDVHWYQQLPGTAPKLLIYRSNQRPSGVPDRFSGSKSGTSASLAISGLRSEDEADYYCSSYAGNYNLVFGGGTKLTVL	35 % Emax BMP9	0.075 nM	931000 RLU	35 % Emax BMP9	0.075 nM	931000 RLU	–	–
PRO006 (bispecific antibody) EVQLLESGGGLVQPGGSLRLSCAASGFTFSDYYMTWIRQAPGKGLEWVSSISGGSTYYADSRKGRFTISRDNSENTLYLQMNSLRAEDTAVYYCARDFGVAGWFGQYGMDVWGQGTLVTVSSGGGGSGGGGSGGGGSQSVLTQPPSASGTPGQRVTISCTGSSSNIGAGYDVHWYQQLPGTAPKLLIYRSNQRPSGVPDRFSGSKSGTSASLAISGLRSEDEADYYCSSYAGNYNLVFGGGTKLTVLDKTHTCPPCPAPEAAGAPSVFLFPPKPKDTLMISRTPEVTCVVVDVSHEDPEVKFNWYVDGVEVHNAKTKPREEQYNSTYRVVSVLTVLHQDWLNGKEYKCKVSNKALPAPIEKTISKAKGQPREPQVYTLPPSRDELTKNQVSLTCLVKGFYPSDIAVEWESNGQPENNYKTTPPVLDSDGSFFLYSKLTVDKSRWQQGNVFSCSVMHEALHNHYTQKSLSLSPGGGGGSGGGGSEVQLLESGGGLVQPGGSLRLSCAASGFTFSSYAMSWVRQAPGKGLEWVANINQDGSEKNYVDSMRGRFTISRDNSKNTLYLQMNSLRAEDTAVYYCAREFDYWGQGTLVTVTSSGGGGSGGGGSGGGGSQSVLAQPPSASGTPGQRVTISCSGSSSNIGSNYVYWYQQLPGTAPKLLIYGNNKRPSGVPDRFSGSKSGTSASLAISGLRSEDEADYYCAAWDDSLNGRVFGGGTKLTVL	35 % Emax BMP9	0.1 nM	929000 RLU	35 % Emax BMP9	0.1 nM	929000 RLU	–	–
DGL208 (bispecific antibody) chain 1: QVQLVESGGGLVQAGGSLRLSCAASGRTFSKHAMGWFRQAPGKEREFVAAIDWSGGSTYYADSVKGRFTISRDNAKNTVYLQMDSLKPEDTAVYYCAADSYTDYAQLWLPELESEYDYWGQGTLVTVSSPLAPDKTHTCPPCPAPEAAGAPSVFLFPPKPKDTLMISRTPEVTCVVVDVSHEDPEVKFNWYVDGVEVHNAKTKPREEQYNSTYRVVSVLTVLHQDWLNGKEYKCKVSNKALPAPIEKTISKAKGQPREPQVCTLPPSRDELTKNQVSLSCAVKGFYPSDIAVEWESNGQPENNYKTTPPVLDSDGSFFLVSKLTVDKSRWQQGNVFSCSVMHEALHNHYTQKSLSLSPGWSHPQFEK chain 2: not shown	–	–	–	–	–	–	44 % of human IL18 activity	–
DGL210 (bispecific antibody) chain 1: QVQLVESGGGLVQAGGSLRLSCAASGRTFSKHAMGWFRQAPGKEREFVAAIDWSGGSTYYADSVKGRFTISRDNAKNTVYLQMDSLKPEDTAVYYCAADSYTDYAQLWLPELESEYDYWGQGTLVTVSSGGGGSGGGGSGGGGSGGGGSCPPCPAPEAAGAPSVFLFPPKPKDTLMISRTPEVTCVVVDVSHEDPEVKFNWYVDGVEVHNAKTKPREEQYNSTYRVVSVLTVLHQDWLNGKEYKCKVSNKALPAPIEKTISKAKGQPREPQVCTLPPSRDELTKNQVSLSCAVKGFYPSDIAVEWESNGQPENNYKTTPPVLDSDGSFFLVSKLTVDKSRWQQGNVFSCSVMHEALHNHYTQKSLSLSPGWSHPQFEK chain 2: QLQLVESGGGLVQAGGSLRLSCAASRSITFSHNVMGWYRQAPGKQRELVASIGSGGSTNYVDSVKGRATISRDNAKKTVYLQMNSLKPEDTAVYYCGVVVGVYRGSLGQGTLVTVSSGGGGSGGGGSGGGGSGGGGSCPPCPAPEAAGAPSVFLFPPKPKDTLMISRTPEVTCVVVDVSHEDPEVKFNWYVDGVEVHNAKTKPREEQYNSTYRVVSVLTVLHQDWLNGKEYKCKVSNKALPAPIEKTISKAKGQPREPQVYTLPPCRDELTKNQVSLWCLVKGFYPSDIAVEWESNGQPENNYKTTPPVLDSDGSFFLYSKLTVDKSRWQQGNVFSCSVMHEALHNHYTQKSLSLSPGEPEA	–	–	–	–	–	–	34 % of human IL18 activity	–
DGL211 (bispecific antibody) chain 1: QVQLVESGGGLVQAGGSLRLSCAASGRTFSKHAMGWFRQAPGKEREFVAAIDWSGGSTYYADSVKGRFTISRDNAKNTVYLQMDSLKPEDTAVYYCAADSYTDYAQLWLPELESEYDYWGQGTLVTVSSEKSYGPPCPPCPAPEAAGAPSVFLFPPKPKDTLMISRTPEVTCVVVDVSHEDPEVKFNWYVDGVEVHNAKTKPREEQYNSTYRVVSVLTVLHQDWLNGKEYKCKVSNKALPAPIEKTISKAKGQPREPQVCTLPPSRDELTKNQVSLSCAVKGFYPSDIAVEWESNGQPENNYKTTPPVLDSDGSFFLVSKLTVDKSRWQQGNVFSCSVMHEALHNHYTQKSLSLSPGWSHPQFEK chain 2: QLQLVESGGGLVQAGGSLRLSCAASRSITFSHNVMGWYRQAPGKQRELVASIGSGGSTNYVDSVKGRATISRDNAKKTVYLQMNSLKPEDTAVYYCGVVVGVYRGSLGQGTLVTVSSEKSYGPPCPPCPAPEAAGAPSVFLFPPKPKDTLMISRTPEVTCVVVDVSHEDPEVKFNWYVDGVEVHNAKTKPREEQYNSTYRVVSVLTVLHQDWLNGKEYKCKVSNKALPAPIEKTISKAKGQPREPQVYTLPPCRDELTKNQVSLWCLVKGFYPSDIAVEWESNGQPENNYKTTPPVLDSDGSFFLYSKLTVDKSRWQQGNVFSCSVMHEALHNHYTQKSLSLSPGEPEA	–	–	–	–	–	–	50 % of human IL18 activity	–
